Assay results published in the supplement of paper PMC10126150.
± gives the standard deviation of the averaged measurements.

Each sequence was assayed on ATP (assay: switch fluorescence ratio, 500 uM ATP over buffer (Cy3 cluster intensity, sum of 5 cycles each) (fold (ratio)); higher = stronger signal-on switching upon ATP binding; sequences stand for … in TCGTCGGCAGCGTCAGATGTGTATAAGAGACAGTTTTTTTTTTTTTTTTTTTTTTTTT…TC). Settings: aptamer strand: ATP DNA aptamer (quencher-CACCTGGGGGAGTATTGCGGAGGAAGG + anchor), 100 nM annealed; ATP concentration: 500 uM.
Procedure, shortened: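 Between each of five buffer/ATP cycles, the flow-cell was stripped with NaOH and re-annealed. Each cycle imaged Cy3-labelled switching-strand clusters, annealed to 100 nM quencher-labelled ATP aptamer on a modified Illumina MiSeq flow-cell, first in selection buffer and then after 15 min with 500 uM ATP at 22 °C. The fluorescence ratio is summed target-cycle over summed buffer-cycle Cy3 intensity per cluster, averaged per switch-domain sequence, with clusters outside 100-1000 RFU excluded.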
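Also: ATP exposure 15 min at 22 °C before imaging.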

TTAAGAGATA and ATAATTTCAA are within error of each other in switch fluorescence ratio: 0.989 ± 0.018 for the first, 0.999 ± 0.017 for the second.

TTGTTTCCCG and TTAGGTATCT are the same in switch fluorescence ratio: 1.013 ± 0.0086 for the first, 1.01 ± 0.0095 for the second.

TCAGGTTAGT and CTGCGTCTAA are within error of each other in switch fluorescence ratio: 1.02 ± 0.022 for the first, 1.03 ± 0.027 for the second.

Going from GCGCTTTCAC to ATGGGCGGCC, the switch fluorescence ratio falls from 1.53 ± 0.026 to 1.0476 ± 0.00053.

TATCGGACTG and GAATTAAATA are within error of each other in switch fluorescence ratio: 1.01 ± 0.13 for the first, 1.02 ± 0.018 for the second.

CAGAATGCGG and GCTGGCTCGT are within error of each other in switch fluorescence ratio: 0.991 ± 0.023 for the first, 1.01 ± 0.013 for the second.

First: GCAGGGGCTG
Second: TATTGTGTTT
The switch fluorescence ratio of the first is higher: 1.02 ± 0.016 for the first, 0.9781 ± 0.0039 for the second.

First: AAGAAACGGG
Second: GAAGGACAGA
The switch fluorescence ratio of the first is higher: 1.025 ± 0.008 for the first, 1 ± 0.018 for the second.

AAAGGGAGTA and TGTAAGGAAA are within error of each other in switch fluorescence ratio: 0.999 ± 0.041 for the first, 1.03 ± 0.013 for the second.

TTGTGTATGG and AATAGGTTGT are within error of each other in switch fluorescence ratio: 1.02 ± 0.052 for the first, 0.992 ± 0.015 for the second.

Compared with GGAGATTGCA, CGTAGAGCGA is lower in switch fluorescence ratio: 1.058 ± 0.0089 for the first, 1.03 ± 0.015 for the second.

TCCGAGTATG and ACACAATAGG are within error of each other in switch fluorescence ratio: 1.08 ± 0.027 for the first, 1.04 ± 0.025 for the second.

GTCGAGAAGG and AAATGGGGGT are within error of each other in switch fluorescence ratio: 0.991 ± 0.009 for the first, 0.975 ± 0.011 for the second.

GAGAGGGTGT and AGGGGGGGCG are within error of each other in switch fluorescence ratio: 1.05 ± 0.081 for the first, 0.975 ± 0.05 for the second.

Going from CTCCTGGCCA to CGGAGGAAGG, the switch fluorescence ratio falls from 1.13 ± 0.014 to 1.044 ± 0.0072.

First: GGGATATGAT
Second: GAGAAAGTTC
The switch fluorescence ratio of the first is lower: 0.9829 ± 0.0029 for the first, 1.06 ± 0.038 for the second.

GCCAGGGCTT and CTCTTGTATC are within error of each other in switch fluorescence ratio: 1.03 ± 0.036 for the first, 1.05 ± 0.063 for the second.

ATGGATAGTC and TTGTTGGGAA are within error of each other in switch fluorescence ratio: 0.986 ± 0.044 for the first, 0.998 ± 0.032 for the second.

Compared with TACTGTGAGC, CAATACGGGG is higher in switch fluorescence ratio: 1.016 ± 0.0076 for the first, 1.13 ± 0.085 for the second.

GTTAGGTTGC and ATAGGGGTT are within error of each other in switch fluorescence ratio: 1.01 ± 0.046 for the first, 1.021 ± 0.005 for the second.

TGATTTTGGA and GATGGAGTTC are within error of each other in switch fluorescence ratio: 0.974 ± 0.012 for the first, 0.983 ± 0.029 for the second.

CCGAGGGGGT and TATTAATAA are within error of each other in switch fluorescence ratio: 1.81 ± 1.1 for the first, 1 ± 0.0029 for the second.

Going from TACGATATAC to GGTGTGTGGG, the switch fluorescence ratio falls from 3.09 ± 0.34 to 1.01 ± 0.033.

Going from CACCCTGGTG to CAGTGGGGGC, the switch fluorescence ratio falls from 4.51 ± 0.57 to 1.05 ± 0.087.

TGAAAGATCG and GCTAGGGGGT are the same in switch fluorescence ratio: 1.02 ± 0.04 for the first, 1.02 ± 0.09 for the second.

GGGCGCGAAC and TTTTTCCGGT are within error of each other in switch fluorescence ratio: 1.06 ± 0.018 for the first, 1.07 ± 0.13 for the second.

GTGCCTCCTG and ATGAAGATTA are within error of each other in switch fluorescence ratio: 1.03 ± 0.018 for the first, 0.987 ± 0.043 for the second.

First: TAACACGGGA
Second: CATATTCAAT
The switch fluorescence ratio of the first is higher: 1.037 ± 0.003 for the first, 1 ± 0.015 for the second.

CAAGCAGGCA and ACTAATAAGA are within error of each other in switch fluorescence ratio: 0.9935 ± 0.0067 for the first, 1.01 ± 0.019 for the second.

Going from ATCCTACAGC to AGCCCGTCGT, the switch fluorescence ratio falls from 1.1 ± 0.025 to 0.99 ± 0.022.

AAGTTGTGCT and ATCCGGGTTC are within error of each other in switch fluorescence ratio: 0.972 ± 0.014 for the first, 1 ± 0.015 for the second.

CCAATGAGGT and AAAGCTTGAT are within error of each other in switch fluorescence ratio: 0.9962 ± 0.0084 for the first, 1.01 ± 0.02 for the second.

TCGTCAAAGA and AATTGTATCT are within error of each other in switch fluorescence ratio: 1.07 ± 0.023 for the first, 1.01 ± 0.063 for the second.

TGAAGAAGTG and AACCCGCCTT are within error of each other in switch fluorescence ratio: 0.994 ± 0.022 for the first, 1.07 ± 0.067 for the second.

GATGTTATAA and ATTAATATGG are within error of each other in switch fluorescence ratio: 1 ± 0.029 for the first, 1.02 ± 0.015 for the second.

TTTAGGTTTG and GCCACAGTCG are within error of each other in switch fluorescence ratio: 1 ± 0.066 for the first, 1.01 ± 0.022 for the second.

GGAGCTTTGG and ATTGACTTTT are within error of each other in switch fluorescence ratio: 0.998 ± 0.035 for the first, 1 ± 0.025 for the second.

GCCGTACTCT and GCTGGGGATA are within error of each other in switch fluorescence ratio: 1.1 ± 0.1 for the first, 1.03 ± 0.032 for the second.

GAAATAAGTG and AACGTTCGCG are within error of each other in switch fluorescence ratio: 1.04 ± 0.026 for the first, 1.03 ± 0.032 for the second.

TGGGGGTGTT and GCGGTGGGGG are within error of each other in switch fluorescence ratio: 1 ± 0.032 for the first, 1.03 ± 0.03 for the second.

Going from TCATAACTGC to ACAAATATAT, the switch fluorescence ratio rises from 1.02 ± 0.029 to 1.17 ± 0.081.

CTAAGAGGGA and CTTGGGGATT are within error of each other in switch fluorescence ratio: 0.999 ± 0.025 for the first, 0.99 ± 0.044 for the second.

ATGTCGACAG and TTGATATGGG are within error of each other in switch fluorescence ratio: 1 ± 0.043 for the first, 1.03 ± 0.11 for the second.

TGTCCTAGCG and ATATCGCTGA are within error of each other in switch fluorescence ratio: 0.99 ± 0.024 for the first, 0.987 ± 0.013 for the second.

First: GCGGAAGGTG
Second: AAAGGGCCAG
The switch fluorescence ratio of the first is higher: 1.55 ± 0.032 for the first, 1.02 ± 0.02 for the second.

TTAGAATACG and TGGGGGTTGC are within error of each other in switch fluorescence ratio: 1 ± 0.045 for the first, 0.982 ± 0.042 for the second.

Going from GTTTGTACGA to GACCTGAGCA, the switch fluorescence ratio rises from 0.97621 ± 0.0002 to 1.113 ± 0.0034.

CATTATGTGC and GACTGGTATT are within error of each other in switch fluorescence ratio: 0.981 ± 0.027 for the first, 0.991 ± 0.019 for the second.

TTTATGGGG and AGTGTGGCCT are within error of each other in switch fluorescence ratio: 0.965 ± 0.08 for the first, 1 ± 0.025 for the second.

AATGGGGACG and TTTTGGGAGT are within error of each other in switch fluorescence ratio: 0.985 ± 0.021 for the first, 1 ± 0.026 for the second.

Compared with GGAATGTGCG, CAAGGGGCAG is higher in switch fluorescence ratio: 0.9794 ± 0.0042 for the first, 1.009 ± 0.0057 for the second.

ACTTGTTCGT and CTAAAGGTTC are within error of each other in switch fluorescence ratio: 1.006 ± 0.0075 for the first, 1.05 ± 0.05 for the second.

GGTTTTTGTC and TAGGCAGATG are the same in switch fluorescence ratio: 1.01 ± 0.013 for the first, 1.01 ± 0.02 for the second.

CGGGGTTGGG and TTTTTCGGCC are within error of each other in switch fluorescence ratio: 1.01 ± 0.047 for the first, 0.979 ± 0.026 for the second.

First: AACTTGATAT
Second: CTACGAAGGG
The switch fluorescence ratio of the first is lower: 0.9835 ± 0.0019 for the first, 1.04 ± 0.021 for the second.

GGTCGAGGTT and TGATGTGATG are within error of each other in switch fluorescence ratio: 0.991 ± 0.035 for the first, 0.995 ± 0.012 for the second.

Compared with AGGACGCGAC, ATCTAGCGGA is lower in switch fluorescence ratio: 1.548 ± 0.014 for the first, 1.02 ± 0.022 for the second.

Compared with TTCATTTCGG, TTACTCTATA is higher in switch fluorescence ratio: 1.001 ± 0.0025 for the first, 1.06 ± 0.016 for the second.

Compared with AGATAATCGC, TCATTCCACT is higher in switch fluorescence ratio: 0.987 ± 0.03 for the first, 1.031 ± 0.0059 for the second.

GAGGGGGCCA and ACGATGGCTG are within error of each other in switch fluorescence ratio: 1.02 ± 0.027 for the first, 1.04 ± 0.015 for the second.

TGGGAGGACG and GATAAGTATG are within error of each other in switch fluorescence ratio: 0.97 ± 0.038 for the first, 0.975 ± 0.015 for the second.

Going from TTTTACTGAT to TTGGAAGTAG, the switch fluorescence ratio falls from 1.02 ± 0.026 to 0.9688 ± 0.0029.

TAGAGGCAGG and CTATTACGTC are within error of each other in switch fluorescence ratio: 0.985 ± 0.018 for the first, 0.984 ± 0.045 for the second.

TATTTGGTGG and ATCAATTGTT are within error of each other in switch fluorescence ratio: 1.02 ± 0.027 for the first, 0.989 ± 0.015 for the second.

GGGGGACGGC and TTCAAAACGC are within error of each other in switch fluorescence ratio: 0.985 ± 0.049 for the first, 1.03 ± 0.054 for the second.

Compared with GGGTGCGCTG, TTTTTTCATA is lower in switch fluorescence ratio: 1.03 ± 0.014 for the first, 0.9974 ± 0.0093 for the second.

CATTAGTCGT and AAAGTTGTCT are within error of each other in switch fluorescence ratio: 0.996 ± 0.013 for the first, 1.01 ± 0.028 for the second.

GCCTGGAAAT and AGTGTTCGCG are the same in switch fluorescence ratio: 1 ± 0.021 for the first, 1 ± 0.015 for the second.

TGGTTGGACG and CGGGTCCAGC are within error of each other in switch fluorescence ratio: 0.997 ± 0.017 for the first, 1.01 ± 0.033 for the second.

Going from TTTAACGTTT to TTCGATGCAT, the switch fluorescence ratio rises from 0.979 ± 0.0061 to 1.58 ± 0.43.

TGGATAAGGT and CGCCTCAGGG are within error of each other in switch fluorescence ratio: 1.05 ± 0.13 for the first, 1.14 ± 0.018 for the second.

GTTTTGGTAT and CGTTTAGGTG are within error of each other in switch fluorescence ratio: 1.01 ± 0.0052 for the first, 1.02 ± 0.038 for the second.

AGTTGCCTG and CCATTGTAGC are within error of each other in switch fluorescence ratio: 0.997 ± 0.08 for the first, 1.03 ± 0.024 for the second.

CGTAACTAGG and TTTTTCACCG are within error of each other in switch fluorescence ratio: 1.02 ± 0.03 for the first, 1.07 ± 0.079 for the second.

Going from TTACACGATA to GTGGGGGAGC, the switch fluorescence ratio falls from 1.32 ± 0.15 to 0.985 ± 0.029.

GATATAACAT and TTTCGGCACT are within error of each other in switch fluorescence ratio: 1.028 ± 0.0025 for the first, 1.01 ± 0.05 for the second.

TATTTAAAAT and ATTATTAATG are within error of each other in switch fluorescence ratio: 0.995 ± 0.046 for the first, 0.9917 ± 0.008 for the second.

TCCGGGTGGG and GGTCTAGGGT are within error of each other in switch fluorescence ratio: 1.09 ± 0.079 for the first, 1.03 ± 0.025 for the second.

Sequence AAGGATATCT has a switch fluorescence ratio of 0.988 ± 0.022.
